From patent publication US20040192900A1 (published 2004)

Target: CD22mFc (UniProt P20273 20-687)
Assay: Biacore

B1: chimeric 5/44 variant K60R (antibody, V domains shown)
VH: EVQLQQSGTVLARPGASVKMSCKASGYRFTNYWIHWVKQRPGQGLEWIGGINPGNNYTTYRRNLKGKATLTAVTSASTAYMDLSSLTSEDSAVYYCTREGYGNYGAWFAYWGQGTLVTVSS
VL: DVVVTQTPLSLPVSFGDQVSISCRSSQSLANSYGNTFLSWYLHKPGQSPQLLIYGISNRFSGVPDRFTGSGSGTDFTLKISTIKPEDLGMYYCLQGTHQPYTFGGGTKLEIKR
- Kd: 0.204 nM

B2: chimeric 5/44 variant T57A (antibody, V domains shown)
VH: EVQLQQSGTVLARPGASVKMSCKASGYRFTNYWIHWVKQRPGQGLEWIGGINPGNNYATYKRNLKGKATLTAVTSASTAYMDLSSLTSEDSAVYYCTREGYGNYGAWFAYWGQGTLVTVSS
VL: DVVVTQTPLSLPVSFGDQVSISCRSSQSLANSYGNTFLSWYLHKPGQSPQLLIYGISNRFSGVPDRFTGSGSGTDFTLKISTIKPEDLGMYYCLQGTHQPYTFGGGTKLEIKR
- Kd: 0.066 nM

B3: chimeric 5/44 variant N55Q (antibody, V domains shown)
VH: EVQLQQSGTVLARPGASVKMSCKASGYRFTNYWIHWVKQRPGQGLEWIGGINPGNQYTTYKRNLKGKATLTAVTSASTAYMDLSSLTSEDSAVYYCTREGYGNYGAWFAYWGQGTLVTVSS
VL: DVVVTQTPLSLPVSFGDQVSISCRSSQSLANSYGNTFLSWYLHKPGQSPQLLIYGISNRFSGVPDRFTGSGSGTDFTLKISTIKPEDLGMYYCLQGTHQPYTFGGGTKLEIKR
- Kd: 0.327 nM
